# PMC11847078
# Assays:
# CD4-Nav1.6-CTD-NLuc = CD4-Nav1.6-CTD-NLuc (UniProt Q9UQD0); assay: split reporter (BiFC, NanoBiT); in-cell split-luciferase complementation assay (LCA); HEK293 cells transiently cotransfected with CD4-Nav1.6-CTD-NLuc and CLuc-GSK3β or a mutant; D-luciferin, 37 °C; peak luminescence as percent of the per-plate control; in one set cells treated with vehicle (0.5% DMSO) or 2 μM CHIR99021 for 1 h before the read-out
# GSK3β = GSK3β (UniProt P49841); assay: split-luciferase complementation assay in HEK293; settings: reference: vehicle (0.5% DMSO); sites T1936
# Sequence of UniProt Q9UQD0 (Q9UQD0 whole entry): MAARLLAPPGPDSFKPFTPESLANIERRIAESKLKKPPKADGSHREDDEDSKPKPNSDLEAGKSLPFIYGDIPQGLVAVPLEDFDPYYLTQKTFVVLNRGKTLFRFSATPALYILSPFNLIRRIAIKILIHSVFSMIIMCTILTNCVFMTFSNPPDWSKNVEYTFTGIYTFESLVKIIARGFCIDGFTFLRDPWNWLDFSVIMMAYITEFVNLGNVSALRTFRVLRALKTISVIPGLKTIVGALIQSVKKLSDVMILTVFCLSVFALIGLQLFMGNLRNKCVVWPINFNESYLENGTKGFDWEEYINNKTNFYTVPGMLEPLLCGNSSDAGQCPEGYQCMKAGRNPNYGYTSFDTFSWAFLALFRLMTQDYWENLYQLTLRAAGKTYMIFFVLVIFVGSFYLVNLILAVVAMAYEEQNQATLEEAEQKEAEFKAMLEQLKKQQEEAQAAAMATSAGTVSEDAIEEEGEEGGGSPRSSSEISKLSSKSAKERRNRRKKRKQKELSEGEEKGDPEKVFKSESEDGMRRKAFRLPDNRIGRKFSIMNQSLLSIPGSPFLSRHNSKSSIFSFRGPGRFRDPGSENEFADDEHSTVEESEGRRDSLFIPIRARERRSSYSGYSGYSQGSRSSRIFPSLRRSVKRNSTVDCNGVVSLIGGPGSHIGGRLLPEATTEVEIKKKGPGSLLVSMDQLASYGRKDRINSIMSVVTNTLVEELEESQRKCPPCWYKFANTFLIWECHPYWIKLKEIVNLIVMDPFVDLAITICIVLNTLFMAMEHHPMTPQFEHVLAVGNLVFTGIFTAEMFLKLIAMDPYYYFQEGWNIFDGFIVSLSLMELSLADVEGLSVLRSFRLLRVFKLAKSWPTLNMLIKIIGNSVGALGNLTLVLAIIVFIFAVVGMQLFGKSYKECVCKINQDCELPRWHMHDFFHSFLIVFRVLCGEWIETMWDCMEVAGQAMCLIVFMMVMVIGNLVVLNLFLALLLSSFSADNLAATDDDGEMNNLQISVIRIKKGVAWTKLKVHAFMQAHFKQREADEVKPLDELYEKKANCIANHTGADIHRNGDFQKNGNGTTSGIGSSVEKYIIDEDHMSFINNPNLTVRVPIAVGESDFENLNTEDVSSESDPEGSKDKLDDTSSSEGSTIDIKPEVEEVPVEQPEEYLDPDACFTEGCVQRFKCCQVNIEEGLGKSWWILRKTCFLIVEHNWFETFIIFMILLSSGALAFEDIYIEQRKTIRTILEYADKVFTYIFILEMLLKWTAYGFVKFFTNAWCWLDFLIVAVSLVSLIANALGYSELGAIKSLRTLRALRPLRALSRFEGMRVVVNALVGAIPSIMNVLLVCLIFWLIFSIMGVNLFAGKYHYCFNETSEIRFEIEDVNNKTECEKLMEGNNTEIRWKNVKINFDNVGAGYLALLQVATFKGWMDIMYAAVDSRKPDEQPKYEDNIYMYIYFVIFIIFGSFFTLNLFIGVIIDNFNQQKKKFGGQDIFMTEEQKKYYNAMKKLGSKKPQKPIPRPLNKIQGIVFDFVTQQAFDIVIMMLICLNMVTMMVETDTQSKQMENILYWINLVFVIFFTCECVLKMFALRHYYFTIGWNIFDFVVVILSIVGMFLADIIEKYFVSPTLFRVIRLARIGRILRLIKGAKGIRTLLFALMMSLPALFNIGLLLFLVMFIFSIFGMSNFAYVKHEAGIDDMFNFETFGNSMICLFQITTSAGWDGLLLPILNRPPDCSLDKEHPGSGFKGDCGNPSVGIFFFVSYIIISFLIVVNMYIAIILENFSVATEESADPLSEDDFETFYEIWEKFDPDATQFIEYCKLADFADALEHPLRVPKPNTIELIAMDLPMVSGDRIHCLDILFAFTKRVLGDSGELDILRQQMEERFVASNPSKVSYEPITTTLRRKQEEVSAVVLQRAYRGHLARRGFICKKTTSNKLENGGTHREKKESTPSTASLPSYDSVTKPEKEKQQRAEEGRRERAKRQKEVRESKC
# Sequence of CLuc-GSK3β (P49841 whole entry): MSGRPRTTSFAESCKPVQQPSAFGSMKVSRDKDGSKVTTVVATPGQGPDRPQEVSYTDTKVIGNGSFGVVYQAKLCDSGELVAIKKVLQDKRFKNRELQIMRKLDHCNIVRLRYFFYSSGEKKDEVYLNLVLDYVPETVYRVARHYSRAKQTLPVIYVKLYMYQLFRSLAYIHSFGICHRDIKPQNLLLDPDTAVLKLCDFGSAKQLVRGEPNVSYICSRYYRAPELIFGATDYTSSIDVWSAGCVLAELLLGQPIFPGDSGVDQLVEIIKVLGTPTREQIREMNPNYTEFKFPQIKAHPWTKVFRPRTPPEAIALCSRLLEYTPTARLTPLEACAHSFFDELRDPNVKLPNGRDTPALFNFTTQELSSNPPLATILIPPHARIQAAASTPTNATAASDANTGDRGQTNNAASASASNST
Substance,% Lum with 2 μM CHIR99021 (relative to Nav1.6:GSK3β + DMSO) (CD4-Nav1.6-CTD-NLuc) [% Lum],% Lum (luminescence relative to Nav1.6:GSK3β control) (CD4-Nav1.6-CTD-NLuc) [% Lum],further results
CLuc-GSK3β (from UniProt P49841 1-420) (enzyme),91.2,–,% Lum with vehicle (0.5% DMSO; the control to which the set is normalised) (CD4-Nav1.6-CTD-NLuc): 100 % Lum
CLuc-GSK3βΔABD (from UniProt P49841 1-420) (enzyme),58.2,42,% Lum with vehicle (0.5% DMSO) (relative to Nav1.6:GSK3β + DMSO) (CD4-Nav1.6-CTD-NLuc): 60.9 % Lum
CLuc-GSK3βΔCTD (from UniProt P49841 1-343) (domain or fragment),–,167,–
"Nav1.6 C-terminal domain (CTD) 2 μM CHIR99021, 1 h",–,–,other: % luminescence of WT GSK3β + DMSO control (GSK3β): same; reference 60.9 ± 3.3; percent of reference (GSK3β): same; reference 100.0 ± 4.4
